Experimental data from IntAct's records for PubMed 31515488.

B1: Centrosomal protein of 55 kDa (Homo sapiens), Q53EZ4 (parent)
chain: MSSRSTKDLIKSKWGSKPSNSKSETTLEKLKGEIAHLKTSVDEITSGKGKLTDKERHRLLEKIRVLEAEKEKNAYQLTEKDKEIQRLRDQLKARYSTTTLLEQLEETTREGERREQVLKALSEEKDVLKQQLSAATSRIAELESKTNTLRLSQTVAPNCFNSSINNIHEMEIQLKDALEKNQQWLVYDQQREVYVKGLLAKIFELEKKTETAAHSLPQQTKKPESEGYLQEEKQKCYNDLLASAKKDLEVERQTITQLSFELSEFRRKYEETQKEVHNLNQLLYSQRRADVQHLEDDRHKTEKIQKLREENDIARGKLEEEKKRSEELLSQVQFLYTSLLKQQEEQTRVALLEQQMQACTLDFENEKLDRQHVQHQLHVILKELRKARNQITQLESLKQLHEFAITEPLVTFQGETENREKVAASPKSPTAALNESLVECPKCNIQYPATEHRDLLVHVEYCSK
B2: RNA-binding protein 15 (Homo sapiens), Q96T37-3 (parent)
chain: MRTAGRDPVPRRSPRWRRAVPLCETSAGRRVTQLRGDDLRRPATMKGKERSPVKAKRSRGGEDSTSRGERSKKLGGSGGSNGSSSGKTDSGGGSRRSLHLDKSSSRGGSREYDTGGGSSSSRLHSYSSPSTKNSSGGGESRSSSRGGGGESRSSGAASSAPGGGDGAEYKTLKISELGSQLSDEAVEDGLFHEFKRFGDVSVKISHLSGSGSGDERVAFVNFRRPEDARAAKHARGRLVLYDRPLKIEAVYVSRRRSRSPLDKDTYPPSASVVGASVGGHRHPPGGGGGQRSLSPGGAALGYRDYRLQQLALGRLPPPPPPPLPRDLERERDYPFYERVRPAYSLEPRVGAGAGAAPFREVDEISPEDDQRANRTLFLGNLDITVTESDLRRAFDRFGVITEVDIKRPSRGQTSTYGFLKFENLDMSHRAKLAMSGKIIIRNPIKIGYGKATPTTRLWVGGLGPWVPLAALAREFDRFGTIRTIDYRKGDSWAYIQYESLDAAHAAWTHMRGFPLGGPDRRLRVDFADTEHRYQQQYLQPLPLTHYELVTDAFGHRAPDPLRGARDRTPPLLYRDRDRDLYPDSDWVPPPPPVRERSTRTAATSVPAYEPLDSLDRRRDGWSLDRDRGDRDLPSSRDQPRKRRLPEESGGRHLDRSPESDRPRKRHCAPSPDRSPELSSSRDRYNSDNDRSSRLLLERPSPIRDRRGSLEKSQGDKRDRKNSASAERDRKHRTTAPTEGKSPLKKEDRSDGSAPSTSTASSKLKSPSQKQDGGTAPVASASPKLCLAWQGMLLLKNSNFPSNMHLLQGDLQVASSLLVEGSTGGKVAQLKITQRLRLDQPKLDEVTRRIKVAGPNGYAILLAVPGSSDSRSSSSSAASDTATSTQRPLRNLVSYLKQKQAAGVISLPVGGNKDKENTGVLHAFPPCEFSQQFLDSPAKALAKSEEDYLVMIIVRAKLVEQRMKIWNSKL
B3: Uncharacterized protein C3orf62 (Homo sapiens), Q6ZUJ4 (parent)
chain: MHYIKTWSLLGEMSEKLRRCRKELTAAIDRAFEGVSYSQECTGQQRLELSAAPLSFSLPVHRLLCRRHPLAACSSAAPFAAVPCAPENENPAFATNHAPVNAKPHALCPERKPLTSKENVLMHSSILAPERESWRTAGEGENWRKENLRKDMERDLKADSNMPLNNSSQEVTKDLLDMIDHTSIRTIEELAGKIEFENELNHMCGHCQDSPFKEEAWALLMDKSPQKATDADPGSLKQAFDDHNIVETVLDLEEDYNVMTSFKYQIE
B4: Protein BANP (Homo sapiens), Q8N9N5-2 (parent)
chain: MMSEHDLADVVQIAVEDLSPDHPVVLENHVVTDEDEPALKRQRLEINCQDPSIKSFLYSINQTICLRLDSIEAKLQALEATCKSLEEKLDLVTNKQHSPIQVPMVAGSPLGATQTCNKVRCAVPGRRQNTIVVKVPGQEDSHHEDGESGSEASDSVSSCGQAGSQSIGSNVTLITLNSEEDYPNGTWLGDENNPEMRVRCAIIPSDMLHISTNCRTAEKMALTLLDYLFHREVQAVSNLSGQGKHGKKQLDPLTIYGIRCHLFYKFGITESDWYRIKQSIDSKCRTAWRRKQRGQSLAVKSFSRRTPNSSSYCPSEPMMSTPPPASELPQPQPQPQALHYALANAQQVQIHQIGEDGQVQVIPQGHLHIAQVPQGEQVQITQDSEGNLQIHHVGQDGQVLQGAQLIAVASSDPAAAGVDGSPLQGSDIQVQYVQLAPVSDHTAGAQTAEALQPTLQPEMQLEHGAIQIQ

Variants of: B1
Conditions: with pdc6i_human PDCD6IP

| Variant | effect of a mutation on the interaction |
| --- | --- |
| E321K | with no effect |
| A244P | with no effect |
| L59F | with no effect |
| C236R | with no effect |
| R138Q | with no effect |
| R348K | with no effect |

Variants of: B1
Conditions: with dpolm_human POLM

| Variant | effect of a mutation on the interaction |
| --- | --- |
| A244P | with no effect |
| C236R | with no effect |
| R348K | with no effect |

Variants of: B1
Conditions: with tead4_human TEAD4, Q15561
Chain of tead4_human TEAD4, Q15561 (Q15561 whole entry): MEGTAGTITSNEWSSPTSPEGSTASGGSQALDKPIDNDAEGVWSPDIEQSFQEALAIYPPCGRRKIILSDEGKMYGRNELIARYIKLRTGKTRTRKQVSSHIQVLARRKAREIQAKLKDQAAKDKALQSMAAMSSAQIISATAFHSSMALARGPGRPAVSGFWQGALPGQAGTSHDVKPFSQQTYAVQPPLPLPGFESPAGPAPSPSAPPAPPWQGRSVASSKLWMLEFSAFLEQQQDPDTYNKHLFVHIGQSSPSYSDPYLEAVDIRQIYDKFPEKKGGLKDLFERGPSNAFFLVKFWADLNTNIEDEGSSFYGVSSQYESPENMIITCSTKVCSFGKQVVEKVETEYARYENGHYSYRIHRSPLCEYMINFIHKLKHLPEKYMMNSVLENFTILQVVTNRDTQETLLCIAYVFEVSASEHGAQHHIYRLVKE

| Variant | effect of a mutation on the interaction |
| --- | --- |
| A244P | with no effect |
| C236R | with no effect |
| R348K | with no effect |

Variants of: B1
Conditions: with anx11_human ANXA11, P50995
Chain of anx11_human ANXA11, P50995 (P50995 whole entry): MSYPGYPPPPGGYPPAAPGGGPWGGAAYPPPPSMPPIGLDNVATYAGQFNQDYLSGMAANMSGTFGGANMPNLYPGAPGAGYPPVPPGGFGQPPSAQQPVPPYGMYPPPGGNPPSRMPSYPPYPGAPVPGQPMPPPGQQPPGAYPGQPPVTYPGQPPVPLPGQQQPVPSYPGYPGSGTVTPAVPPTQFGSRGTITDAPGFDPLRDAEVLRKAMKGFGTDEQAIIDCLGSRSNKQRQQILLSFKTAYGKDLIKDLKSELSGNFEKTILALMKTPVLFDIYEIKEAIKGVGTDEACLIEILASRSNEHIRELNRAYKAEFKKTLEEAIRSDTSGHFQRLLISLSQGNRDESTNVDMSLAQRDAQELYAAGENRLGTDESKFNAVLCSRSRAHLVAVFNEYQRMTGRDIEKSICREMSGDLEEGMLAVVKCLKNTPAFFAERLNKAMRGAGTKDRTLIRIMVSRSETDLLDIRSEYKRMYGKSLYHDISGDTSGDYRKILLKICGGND

| Variant | effect of a mutation on the interaction |
| --- | --- |
| A244P | disrupting interaction strength |
| C236R | with no effect |
| R348K | with no effect |

Variants of: B2
Conditions: with nav2_human NAV2, Q8IVL1
Chain of nav2_human NAV2, Q8IVL1 (Q8IVL1 whole entry): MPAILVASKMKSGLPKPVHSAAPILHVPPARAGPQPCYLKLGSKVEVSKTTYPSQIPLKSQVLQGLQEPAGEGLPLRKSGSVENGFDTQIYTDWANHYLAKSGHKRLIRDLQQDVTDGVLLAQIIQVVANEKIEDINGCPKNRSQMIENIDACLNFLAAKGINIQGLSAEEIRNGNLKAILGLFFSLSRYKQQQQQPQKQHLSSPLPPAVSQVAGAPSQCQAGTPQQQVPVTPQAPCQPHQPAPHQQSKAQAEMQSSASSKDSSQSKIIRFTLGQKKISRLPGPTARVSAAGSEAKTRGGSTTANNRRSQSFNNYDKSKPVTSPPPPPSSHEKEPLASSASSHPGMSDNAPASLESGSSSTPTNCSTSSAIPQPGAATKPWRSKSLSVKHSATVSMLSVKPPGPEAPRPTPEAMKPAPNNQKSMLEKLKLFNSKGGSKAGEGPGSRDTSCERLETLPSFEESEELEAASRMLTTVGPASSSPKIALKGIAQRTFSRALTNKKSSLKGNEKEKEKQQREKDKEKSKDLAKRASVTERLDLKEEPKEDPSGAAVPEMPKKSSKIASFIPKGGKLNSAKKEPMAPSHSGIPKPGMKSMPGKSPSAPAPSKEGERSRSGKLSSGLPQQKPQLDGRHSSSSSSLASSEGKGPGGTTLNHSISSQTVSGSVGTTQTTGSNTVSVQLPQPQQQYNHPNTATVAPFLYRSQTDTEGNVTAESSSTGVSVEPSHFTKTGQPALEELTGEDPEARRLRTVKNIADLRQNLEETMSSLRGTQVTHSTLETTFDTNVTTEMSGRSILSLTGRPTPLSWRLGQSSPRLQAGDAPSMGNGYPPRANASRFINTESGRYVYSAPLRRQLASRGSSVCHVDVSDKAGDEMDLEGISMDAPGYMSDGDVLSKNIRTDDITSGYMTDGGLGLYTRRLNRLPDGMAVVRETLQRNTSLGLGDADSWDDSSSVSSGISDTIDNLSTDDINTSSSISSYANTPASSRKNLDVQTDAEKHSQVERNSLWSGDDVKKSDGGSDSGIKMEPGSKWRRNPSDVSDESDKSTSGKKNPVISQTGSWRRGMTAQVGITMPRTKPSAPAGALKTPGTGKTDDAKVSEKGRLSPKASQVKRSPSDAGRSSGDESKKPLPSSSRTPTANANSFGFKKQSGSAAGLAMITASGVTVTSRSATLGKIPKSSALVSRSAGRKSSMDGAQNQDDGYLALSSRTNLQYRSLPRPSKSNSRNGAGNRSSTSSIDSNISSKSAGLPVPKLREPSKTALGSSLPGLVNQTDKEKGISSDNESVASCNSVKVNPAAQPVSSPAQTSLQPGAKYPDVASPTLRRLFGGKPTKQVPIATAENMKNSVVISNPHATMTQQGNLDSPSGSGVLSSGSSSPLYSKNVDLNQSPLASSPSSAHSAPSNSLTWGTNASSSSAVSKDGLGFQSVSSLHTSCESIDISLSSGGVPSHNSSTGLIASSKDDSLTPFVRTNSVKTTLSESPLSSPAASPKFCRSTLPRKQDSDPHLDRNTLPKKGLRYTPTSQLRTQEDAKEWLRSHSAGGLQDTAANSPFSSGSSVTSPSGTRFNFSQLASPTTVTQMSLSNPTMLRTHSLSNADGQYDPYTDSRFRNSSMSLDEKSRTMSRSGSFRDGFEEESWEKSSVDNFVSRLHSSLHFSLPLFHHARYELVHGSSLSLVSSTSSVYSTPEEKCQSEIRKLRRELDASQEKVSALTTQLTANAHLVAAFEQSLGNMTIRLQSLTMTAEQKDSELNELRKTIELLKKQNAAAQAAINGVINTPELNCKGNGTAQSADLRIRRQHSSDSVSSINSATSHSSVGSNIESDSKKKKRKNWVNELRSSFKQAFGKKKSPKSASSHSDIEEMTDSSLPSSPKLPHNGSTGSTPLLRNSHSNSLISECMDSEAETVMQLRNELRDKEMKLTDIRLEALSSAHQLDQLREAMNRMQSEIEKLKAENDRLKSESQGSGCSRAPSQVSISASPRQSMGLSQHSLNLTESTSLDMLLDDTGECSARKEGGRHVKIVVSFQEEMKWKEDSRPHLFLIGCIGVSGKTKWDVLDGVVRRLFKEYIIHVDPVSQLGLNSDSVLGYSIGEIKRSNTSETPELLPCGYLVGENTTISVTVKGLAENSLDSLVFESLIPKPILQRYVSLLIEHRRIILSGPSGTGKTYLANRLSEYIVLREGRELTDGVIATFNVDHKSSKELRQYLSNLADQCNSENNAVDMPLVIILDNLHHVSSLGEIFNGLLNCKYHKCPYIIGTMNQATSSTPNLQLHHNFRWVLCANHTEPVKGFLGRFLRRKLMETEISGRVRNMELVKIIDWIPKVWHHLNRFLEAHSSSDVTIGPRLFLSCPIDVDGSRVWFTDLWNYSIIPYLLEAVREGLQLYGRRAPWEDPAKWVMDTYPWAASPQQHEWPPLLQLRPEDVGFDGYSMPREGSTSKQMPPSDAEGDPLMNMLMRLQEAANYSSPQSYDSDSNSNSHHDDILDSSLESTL

| Variant | effect of a mutation on the interaction |
| --- | --- |
| R961Q | disrupting interaction strength |

Variants of: B3
Conditions: with mr1l1_human MRFAP1L1, Q96HT8
Chain of mr1l1_human MRFAP1L1, Q96HT8 (Q96HT8 whole entry): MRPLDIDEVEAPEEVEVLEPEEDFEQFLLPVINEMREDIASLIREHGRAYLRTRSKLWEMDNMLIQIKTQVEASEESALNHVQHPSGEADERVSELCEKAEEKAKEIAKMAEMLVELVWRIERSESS

| Variant | effect of a mutation on the interaction |
| --- | --- |
| M203I | with no effect |
| N142D | with no effect |
| E110K | with no effect |
| V60M | with no effect |

Variants of: B4
Conditions: with kcc2d_human CAMK2D

| Variant | effect of a mutation on the interaction |
| --- | --- |
| A162V | with no effect |

Variants of: B4
Conditions: with FAM117B

| Variant | effect of a mutation on the interaction |
| --- | --- |
| A162V | with no effect |

Variants of: B4
Conditions: with aakb2_human PRKAB2, O43741
Chain of aakb2_human PRKAB2, O43741 (O43741 whole entry): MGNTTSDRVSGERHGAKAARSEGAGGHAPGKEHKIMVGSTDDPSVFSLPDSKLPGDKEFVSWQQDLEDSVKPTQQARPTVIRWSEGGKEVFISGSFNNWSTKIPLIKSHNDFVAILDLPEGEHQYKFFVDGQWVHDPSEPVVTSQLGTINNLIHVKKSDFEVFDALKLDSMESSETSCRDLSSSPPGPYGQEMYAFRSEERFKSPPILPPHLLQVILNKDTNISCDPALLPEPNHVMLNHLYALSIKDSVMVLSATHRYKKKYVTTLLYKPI

| Variant | effect of a mutation on the interaction |
| --- | --- |
| A162V | with no effect |

Variants of: B4
Conditions: with pf21a_human PHF21A

| Variant | effect of a mutation on the interaction |
| --- | --- |
| A162V | with no effect |
